# Data as given in PMC10967792.
# What was measured:
# [1] = molecular target: human CC chemokine receptor 7 (hCCR7), stably expressed (human) (UniProt P32248)
# [2] = molecular target: hCCR7-mNeongreen (CCR7 C-terminally tagged with mNeonGreen) (human) (UniProt P32248)
"pEC50 of Gα12 activation (NanoBRET, G protein dissociation), HEK293A cells expressing CCR7 [1]","pEC50 of Gα12 activation (NanoBRET, G protein dissociation), U87 cells expressing CCR7 [1]","pEC50 of Gα13 activation (NanoBRET, G protein dissociation), CHO-K1 cells expressing CCR7 [1]","pEC50 of Gα13 activation (NanoBRET, G protein dissociation), U87 cells expressing CCR7 [1]","pEC50 of Gα15 activation (NanoBRET, G protein dissociation), CHO-K1 cells expressing CCR7 [1]","pEC50 of Gα15 activation (NanoBRET, G protein dissociation), HEK293A cells expressing CCR7 [1]","pEC50 of Gαi1 activation (NanoBRET, G protein dissociation), CHO-K1 cells expressing CCR7 [1]","pEC50 of Gαi1 activation (NanoBRET, G protein dissociation), HEK293A cells expressing CCR7 [1]","pEC50 of Gαi1 activation (NanoBRET, G protein dissociation), U87 cells expressing CCR7 [1]","pEC50 of Gαi2 activation (NanoBRET, G protein dissociation), CHO-K1 cells expressing CCR7 [1]","pEC50 of Gαi2 activation (NanoBRET, G protein dissociation), HEK293A cells expressing CCR7 [1]","pEC50 of Gαi2 activation (NanoBRET, G protein dissociation), U87 cells expressing CCR7 [1]","pEC50 of Gαi3 activation (NanoBRET, G protein dissociation), CHO-K1 cells expressing CCR7 [1]","pEC50 of Gαi3 activation (NanoBRET, G protein dissociation), HEK293A cells expressing CCR7 [1]","pEC50 of Gαi3 activation (NanoBRET, G protein dissociation), U87 cells expressing CCR7 [1]","pEC50 of GαoA activation (NanoBRET, G protein dissociation), CHO-K1 cells expressing CCR7 [1]","pEC50 of GαoA activation (NanoBRET, G protein dissociation), HEK293A cells expressing CCR7 [1]","pEC50 of GαoA activation (NanoBRET, G protein dissociation), U87 cells expressing CCR7 [1]","pEC50 of GαoB activation (NanoBRET, G protein dissociation), CHO-K1 cells expressing CCR7 [1]","pEC50 of GαoB activation (NanoBRET, G protein dissociation), HEK293A cells expressing CCR7 [1]",Sequence,further results
7.44 -log10(M),7.81 -log10(M),8.87 -log10(M),8.77 -log10(M),8.91 -log10(M),7.8 -log10(M),8.54 -log10(M),8.63 -log10(M),8.28 -log10(M),8.69 -log10(M),9.03 -log10(M),8.56 -log10(M),8.84 -log10(M),9.61 -log10(M),8.87 -log10(M),9.37 -log10(M),8.3 -log10(M),8.59 -log10(M),8.96 -log10(M),8.85 -log10(M),CC chemokine ligand 19 (CCL19) (from UniProt Q99731 22-98),"pEC50 of GαoB activation (NanoBRET, G protein dissociation), U87 cells expressing CCR7 [1]: 8.8 -log10(M); pEC50 of Gαq activation (NanoBRET, G protein dissociation), CHO-K1 cells expressing CCR7 [1]: 8.77 -log10(M); pEC50 of Gαq activation (NanoBRET, G protein dissociation), U87 cells expressing CCR7 [1]: 8.41 -log10(M); pEC50 of GαsL activation (NanoBRET, G protein dissociation), CHO-K1 cells expressing CCR7 [1]: 8.97 -log10(M); pEC50 of GαsL activation (NanoBRET, G protein dissociation), HEK293A cells expressing CCR7 [1]: 7.49 -log10(M); pEC50 of GαsL activation (NanoBRET, G protein dissociation), U87 cells expressing CCR7 [1]: 8.95 -log10(M); pEC50 of GαsS activation (NanoBRET, G protein dissociation), CHO-K1 cells expressing CCR7 [1]: 8.58 -log10(M); pEC50 of GαsS activation (NanoBRET, G protein dissociation), U87 cells expressing CCR7 [1]: 8.65 -log10(M); pEC50 of β-arrestin1 (Arrβ1) recruitment to CCR7 (NanoBRET), CHO-K1 cells [2]: 7.92 -log10(M); pEC50 of β-arrestin1 (Arrβ1) recruitment to CCR7 (NanoBRET), HEK293A cells [2]: 7.46 -log10(M); pEC50 of β-arrestin1 (Arrβ1) recruitment to CCR7 (NanoBRET), U87 cells [2]: 7.86 -log10(M); pEC50 of β-arrestin2 (Arrβ2) recruitment to CCR7 (NanoBRET), CHO-K1 cells [2]: 8.11 -log10(M); pEC50 of β-arrestin2 (Arrβ2) recruitment to CCR7 (NanoBRET), HEK293A cells [2]: 7.57 -log10(M); pEC50 of β-arrestin2 (Arrβ2) recruitment to CCR7 (NanoBRET), U87 cells [2]: 7.86 -log10(M)"
6.79 -log10(M),7.5 -log10(M),8.53 -log10(M),8.7 -log10(M),7.56 -log10(M),6.74 -log10(M),8.37 -log10(M),8.47 -log10(M),8.02 -log10(M),8.91 -log10(M),8.76 -log10(M),8.27 -log10(M),8.84 -log10(M),9.33 -log10(M),8.6 -log10(M),9.27 -log10(M),7.97 -log10(M),8.33 -log10(M),8.97 -log10(M),8.34 -log10(M),CC chemokine ligand 21 (CCL21) (from UniProt O00585 24-134),"pEC50 of Gα12 activation (NanoBRET, G protein dissociation), CHO-K1 cells expressing CCR7 [1]: 7.94 -log10(M); pEC50 of GαoB activation (NanoBRET, G protein dissociation), U87 cells expressing CCR7 [1]: 8.45 -log10(M); pEC50 of Gαq activation (NanoBRET, G protein dissociation), CHO-K1 cells expressing CCR7 [1]: 8.45 -log10(M); pEC50 of Gαq activation (NanoBRET, G protein dissociation), U87 cells expressing CCR7 [1]: 8.1 -log10(M); pEC50 of GαsL activation (NanoBRET, G protein dissociation), HEK293A cells expressing CCR7 [1]: 6.79 -log10(M); pEC50 of GαsL activation (NanoBRET, G protein dissociation), U87 cells expressing CCR7 [1]: 8.99 -log10(M); pEC50 of GαsS activation (NanoBRET, G protein dissociation), CHO-K1 cells expressing CCR7 [1]: 8.1 -log10(M); pEC50 of GαsS activation (NanoBRET, G protein dissociation), U87 cells expressing CCR7 [1]: 8.39 -log10(M); pEC50 of β-arrestin1 (Arrβ1) recruitment to CCR7 (NanoBRET), CHO-K1 cells [2]: 7.52 -log10(M); pEC50 of β-arrestin1 (Arrβ1) recruitment to CCR7 (NanoBRET), HEK293A cells [2]: 7.15 -log10(M); pEC50 of β-arrestin1 (Arrβ1) recruitment to CCR7 (NanoBRET), U87 cells [2]: 6.9 -log10(M); pEC50 of β-arrestin2 (Arrβ2) recruitment to CCR7 (NanoBRET), CHO-K1 cells [2]: 7.69 -log10(M); pEC50 of β-arrestin2 (Arrβ2) recruitment to CCR7 (NanoBRET), HEK293A cells [2]: 7.02 -log10(M); pEC50 of β-arrestin2 (Arrβ2) recruitment to CCR7 (NanoBRET), U87 cells [2]: 7.01 -log10(M)"
